Experimental data as given in article PMC11146590.

Biological target: Oct4 C48S (purified) (Mus musculus, UniProt P20263 1-352, C178S)
Assay: EMSA

Chain of Oct4 C48S (purified) (P20263 whole entry C178S): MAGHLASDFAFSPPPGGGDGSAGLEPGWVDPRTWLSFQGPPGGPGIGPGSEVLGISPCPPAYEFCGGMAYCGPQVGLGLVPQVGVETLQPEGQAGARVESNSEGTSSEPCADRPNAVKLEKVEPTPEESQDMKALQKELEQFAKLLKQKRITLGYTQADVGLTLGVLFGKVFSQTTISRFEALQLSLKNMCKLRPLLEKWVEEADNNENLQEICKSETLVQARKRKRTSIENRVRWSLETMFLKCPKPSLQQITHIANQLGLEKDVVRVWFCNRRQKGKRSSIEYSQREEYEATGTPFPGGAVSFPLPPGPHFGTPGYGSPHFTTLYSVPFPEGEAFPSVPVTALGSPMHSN

B1: wild-type octamer probe (dsDNA)
DNA 1: TGTCGAATGCAAATCACT
DNA 2: AGTGATTTGCATTCGACA
- binding result: binds
